This is an account of results in patent publication US20240018245A1 (Genentech, published 2024).

Test [1] concerns the target T1, FcRH5 (fragment crystallizable receptor-like 5) on MOLP-2 cells (human, UniProt Q96RD9 16-977).
T1 sequence (looked up): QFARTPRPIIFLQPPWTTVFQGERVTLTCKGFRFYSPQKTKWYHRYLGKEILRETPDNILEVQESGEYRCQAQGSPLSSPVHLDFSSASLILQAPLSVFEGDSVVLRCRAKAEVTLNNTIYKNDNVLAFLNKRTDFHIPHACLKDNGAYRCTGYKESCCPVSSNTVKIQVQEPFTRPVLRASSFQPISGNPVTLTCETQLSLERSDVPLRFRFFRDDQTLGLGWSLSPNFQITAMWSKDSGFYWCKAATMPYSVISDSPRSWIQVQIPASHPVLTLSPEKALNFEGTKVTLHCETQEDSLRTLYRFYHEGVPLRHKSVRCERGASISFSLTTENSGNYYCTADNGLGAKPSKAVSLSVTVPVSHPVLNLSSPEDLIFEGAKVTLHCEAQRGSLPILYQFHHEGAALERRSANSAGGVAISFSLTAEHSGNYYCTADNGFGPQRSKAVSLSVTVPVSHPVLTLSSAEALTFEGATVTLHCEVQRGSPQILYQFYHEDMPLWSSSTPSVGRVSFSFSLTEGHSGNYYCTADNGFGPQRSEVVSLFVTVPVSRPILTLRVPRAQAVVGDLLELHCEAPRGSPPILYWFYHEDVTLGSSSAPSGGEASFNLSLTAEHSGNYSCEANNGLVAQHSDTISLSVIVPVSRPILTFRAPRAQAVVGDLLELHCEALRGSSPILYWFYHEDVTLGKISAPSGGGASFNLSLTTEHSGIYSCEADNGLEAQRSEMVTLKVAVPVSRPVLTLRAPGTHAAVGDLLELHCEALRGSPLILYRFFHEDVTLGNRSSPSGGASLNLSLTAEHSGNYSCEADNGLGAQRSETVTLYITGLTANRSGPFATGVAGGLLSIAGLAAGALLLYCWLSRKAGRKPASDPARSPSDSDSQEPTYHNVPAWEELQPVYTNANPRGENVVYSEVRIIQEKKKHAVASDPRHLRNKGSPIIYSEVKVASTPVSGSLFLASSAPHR
As to the kind of experiment: cell-based or functional assay.

The target in test [2] is CD3 on T cells of human peripheral blood mononuclear cells (PBMCs) (human, UniProt P07766 23-207). As to the kind of experiment: cell-based or functional assay.
The target in test [3] is T2, CD3 (cluster of differentiation 3) (UniProt P07766 23-126).
T2 construct: also called CD3 antigen
As to the kind of experiment: method not stated; monovalent KD used to calculate CD3 receptor occupancy.

By Kd is commonly meant the free concentration of one partner at which half of the binding sites on the other are occupied at equilibrium, for simple one-to-one binding.

Chain of CD3 on T cells of human peripheral blood mononuclear cells (PBMCs) (P07766 23-207): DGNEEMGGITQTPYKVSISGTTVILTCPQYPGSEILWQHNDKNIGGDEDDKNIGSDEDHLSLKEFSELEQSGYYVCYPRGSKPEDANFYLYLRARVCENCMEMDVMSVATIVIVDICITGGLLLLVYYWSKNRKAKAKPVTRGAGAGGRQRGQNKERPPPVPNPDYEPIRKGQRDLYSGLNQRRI
T2 sequence (P07766 23-126): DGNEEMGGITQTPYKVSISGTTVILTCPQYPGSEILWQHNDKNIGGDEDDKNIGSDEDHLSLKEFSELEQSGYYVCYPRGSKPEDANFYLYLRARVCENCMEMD

B1: cevostamab (bispecific antibody, human IgG1, kappa, N297G)
heavy 1: not shown
light 1: DIQMTQSPSSLSASVGDRVTITCKASQDVRNLVVWFQQKPGKAPKLLIYSGSYRYSGVPSRFSGSGSGTDFTLTISSLQPEDFATYYCQQHYSPPYTFGQGTKVEIKRTVAAPSVFIFPPSDEQLKSGTASVVCLLNNFYPREAKVQWKVDNALQSGNSQESVTEQDSKDSTYSLSSTLTLSKADYEKHKVYACEVTHQGLSSPVTKSFNRGEC
heavy 2: EVQLVQSGAEVKKPGASVKVSCKASGFTFTSYYIHWVRQAPGQGLEWIGWIYPENDNTKYNEKFKDRVTITADTSTSTAYLELSSLRSEDTAVYYCARDGYSRYYFDYWGQGTLVTVSSASTKGPSVFPLAPSSKSTSGGTAALGCLVKDYFPEPVTVSWNSGALTSGVHTFPAVLQSSGLYSLSSVVTVPSSSLGTQTYICNVNHKPSNTKVDKKVEPKSCDKTHTCPPCPAPELLGGPSVFLFPPKPKDTLMISRTPEVTCVVVDVSHEDPEVKFNWYVDGVEVHNAKTKPREEQYGSTYRVVSVLTVLHQDWLNGKEYKCKVSNKALPAPIEKTISKAKGQPREPQVYTLPPSREEMTKNQVSLSCAVKGFYPSDIAVEWESNGQPENNYKTTPPVLDSDGSFFLVSKLTVDKSRWQQGNVFSCSVMHEALHNHYTQKSLSLSPGK
light 2: not shown
notes: Humanized full-length non-glycosylated IgG1 kappa, knobs-into-holes; also called BFCR4350A; RO7187797
As for B1, the “EC50 for T-cell activation in the in vitro human PBMC:MOLP-2 co-culture” value in test [1] and in test [2] was 0.0588 µg/mL in each case. The Kd in test [3] was 2.6 nM.
